Results published in PMC11835620, “CleanCap M6 inhibits decapping of exogenously delivered IVT mRNA”.

Biological target: eIF4E (human, UniProt P06730 1-217)
Assay: EMSA; KD measured but printed only in the figure; higher affinity than M6 3'OMe; EMSA: 25 nM oligo, eIF4E 5 nM to 1.5 uM (2-fold dilutions), 100 mM NaCl, 50 mM Tris-Cl (pH and remaining components cut off in material), temperature not given
Details: protein: recombinant; (stated for spectral shift oligos); single strand

Chain of eIF4E (P06730 whole entry): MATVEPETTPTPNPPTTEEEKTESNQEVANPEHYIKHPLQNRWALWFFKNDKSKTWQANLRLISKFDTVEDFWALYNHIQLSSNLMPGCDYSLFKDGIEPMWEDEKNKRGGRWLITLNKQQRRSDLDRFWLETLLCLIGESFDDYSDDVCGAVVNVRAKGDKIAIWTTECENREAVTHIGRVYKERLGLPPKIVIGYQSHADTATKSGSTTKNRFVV

Binder: AGGAAAUAAGAGAGAAAAGAAGAGUAAGAAGAAAUAUAAGAGC (ssRNA, 5' cap m7GpppA(2'OMe)G; A1 is 2'-O-methyl; cap m7G not in strand) [AG 3'OH cap 43-mer]
- binding result: binds
